Assay [1] has as its target Human IL-10Rβ extracellular domain (20-220), biotinylated (human) (UniProt Q08334). The assay is described as follows: SPR; IL-10 clone 5.1 alone, immobilized. The conditions noted are these: ligand. Background: SPR reads the build-up and loss of mass on a sensor chip optically.
For assay [2] the target is unchanged. The experiment in a line: SPR; clone 5.1 immobilized, pre-bound with saturating soluble IL-10Rα. The conditions noted are these: ligand.
Assay [3] deals with Human IL-10Rβ on cells (Daudi, Jurkat, YT-1, THP-1 cell lines; primary human PBMC populations) (human) (UniProt Q08334). The experiment in a line: cell-based or functional assay.
Chain of Human IL-10Rβ on cells (Daudi, Jurkat, YT-1, THP-1 cell lines; primary human PBMC populations) (human) (Q08334 20-325): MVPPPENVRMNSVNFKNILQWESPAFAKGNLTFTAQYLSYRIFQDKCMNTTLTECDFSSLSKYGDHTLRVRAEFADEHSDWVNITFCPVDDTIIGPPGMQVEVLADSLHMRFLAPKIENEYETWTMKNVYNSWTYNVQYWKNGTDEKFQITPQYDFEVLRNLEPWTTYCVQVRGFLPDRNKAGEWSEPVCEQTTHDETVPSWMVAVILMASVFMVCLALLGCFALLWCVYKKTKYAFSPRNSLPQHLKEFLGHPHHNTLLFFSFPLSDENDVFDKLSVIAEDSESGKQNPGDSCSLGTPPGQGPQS

In general, Kd refers to the concentration at which binding is half-saturated.

Chain of Human IL-10Rβ extracellular domain (20-220), biotinylated (human) (Q08334 other isoform, or with tags, fused parts or gaps): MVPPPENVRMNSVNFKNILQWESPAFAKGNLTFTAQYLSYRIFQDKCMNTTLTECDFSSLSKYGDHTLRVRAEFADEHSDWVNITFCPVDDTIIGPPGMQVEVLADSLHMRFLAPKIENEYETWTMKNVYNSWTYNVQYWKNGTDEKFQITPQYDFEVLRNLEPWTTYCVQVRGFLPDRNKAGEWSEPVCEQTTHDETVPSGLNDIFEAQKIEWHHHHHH

On to “Affinity matured IL-10 clone 5.1 (Super-10), soluble (from UniProt P22301 19-178)”, for which the dissociation constant Kd in assay [1] amounted to 0.07 µM; in assay [2], 0.03 µM. As to “IL-10 D25A/E96A variant (10-DE) (from UniProt P22301 19-178) (ligand)”, in assay [3], the STAT3 activation relative to WT IL-10 in primary NK cells, B cells and T cells was 35 to 50%; the phospho-STAT3 activity in YT-1 cells was 50%.

“IL-10 D25K variant (from UniProt P22301 19-178) (ligand)” gave a phospho-STAT3 activity in YT-1 cells in assay [3] of 50%.

For the origin of these results see patent publication US20230192796A1.
